# T1: substrate EVNLAVEFWHDR
# T1 chain: EVNLAVEFWHDR
# T2: substrate RWHHEVNLAAEF
# T2 chain: RWHHEVNLAAEF
# T3: substrate EEISEVNLAAEF
# T3 chain: EEISEVNLAAEF
# B1: memapsin 2 (spontaneously activated promemapsin 2-T1; amino acids 43-456 and 45-456 of SEQ ID NO: 8) (protein)
# chain: LRLPRETDEEPEEPGRRGSFVEMVDNLRGKSGQGYYVEMTVGSPPQTLNILVDTGSSNFAVGAAPHPFLHRYYQRQLSSTYRDLRKGVYVPYTQGKWEGELGTDLVSIPHGPNVTVRANIAAITESDKFFINGSNWEGILGLAYAEIARPDDSLEPFFDSLVKQTHVPNLFSLGLCGAGFPLNQSEVLASVGGSMIIGGIDHSLYTGSLWYTPIRREWYYEVIIVRVEINGQDLKMDCKEYNYDKSIVDSGTTNLRLPKKVFEAAVKSIKAASSTEKFPDGFWLGEQLVCWQAGTTPWNIFPVISLYLMGEVTNQSFRITILPQQYLRPVEDVATSQDDCYKFAISQSSTGTVMGAVIMEGFYVVFDRARKRIGFAVSACHVHDEFRTAAVEGPFVTLDMEDCGYNIPQTDEST
# Legend:
# [1] = biological target: T1, substrate EVNLAVEFWHDR
# [2] = biological target: T2, substrate RWHHEVNLAAEF
# [3] = biological target: T3, substrate EEISEVNLAAEF
protein,measurement,setting,value
B1,Km,[1],Km of 83±8.9 mM
same,"rate of catalysis, competitive cleavage of a mixture of three peptides (MALDI-TOF)",[2],the RWHH (SEQ ID NO: 53) sequence addition still demonstrated a 60-fold decrease in catalytic rate
same,"rate of catalysis, competitive cleavage of a mixture of two peptides (MALDI-TOF), against EVNLAAEFWHDR",[2],a 60-fold decrease in the rate of catalysis for the upstream RWHH (SEQ ID NO: 53) sequence addition when compared to the downstream WHDR (SEQ ID NO: 29) sequence addition
same,"rate of catalysis, competitive cleavage of a mixture of three peptides (MALDI-TOF)",[3],statistically identical rates of catalysis for the upstream EEIS (SEQ ID NO: 52) and the downstream WHDR (SEQ ID NO: 29) sequence additions

# From patent US20100267609
